The supplement of paper PMC10567573

B1: TBX5 (parent)
chain: FHEVGTEMIITKAGRRMFPSYKVK

Variants of: B1
Assay: protein stability index of a GFP-peptide fusion (GPS, HEK-293T) (PSI 1-6); higher = more stable
Conditions: c terminus: a fixed tail appended
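Note: lentivirally expressed fusions sorted by FACS into six bins by GFP to DsRed ratio, PSI derived from sequencing read proportions per bin multiplied by bin number.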

Protein stability index, by site and new letter:
S20: H 2.31, K 2.18, E 2.02, Q 2.83, I 2.54, N 2.06, C 3.1, M 2.67, Y 2.84, T 2.69, R 2.61
F18: T 1.92, G 2.25, S 2.41, I 2.07
I10: V 2.14, E 2.66, N 2.03, H 2.25, W 1.76, P 2.44
T11: A 3.29, K 2.59, M 1.53, C 2.44, Q 1.88, F 1.71
M17: C 2.05, G 1.67, P 1.84, V 1.63, Q 2.5, F 2, E 2.83, R 2.57
A13: V 2.02, P 1.93, E 2.68, N 2.27, Q 2.65, T 1.68, G 1.84, K 2.44, M 1.3, D 2.57
Y21: V 1.86, N 2.55, F 2.83, Q 2.7, G 2.51, L 2.15
G14: E 2, A 2.6, R 1.64, W 1.95, M 1.49, P 2.86, V 1.62, N 2.04
R15: S 1.69, W 1.53, Y 2.58, C 2.63, L 1.81, Q 2.2, T 2.21
E7: G 2.98, C 2.07, A 2.82, K 1.92, H 1.55, S 1.66
E3: V 2.58, N 1.03, I 4.17, R 2.58, P 2.42, T 1.03
P19: F 1.79, G 2, L 1.74, N 1.61, E 2.19, Y 3.12, D 2.2
V4: N 2.05, G 2.32, L 2.09, M 1.6, R 1.42, I 2.41, D 2.48, C 2
K24: E 1.89, W 1.65, S 1.15, T 2.41, I 1.54, L 1.99, R 1.51, Q 1.33
R16: K 2.65, F 2.31, S 1.75, D 2.15, V 1.54, N 2.54, I 1.81
G5: Q 2.13, D 2.58, S 2.76
I9: T 2.84, E 3.06, F 2.52, K 2.48, Y 1.8, G 2, M 2.19, V 3.05
H2: M 2.03, R 2.53, Q 1.84, K 2.24, I 1.69, A 2.04, Y 2.41, W 1.57, N 2.93
K12: E 1.83, Y 2.91, P 2.12
T6: V 2.07, R 1.62, D 2.25, N 1.68, P 1.3, F 2.76
F1: N 3.4, M 3.02, Y 2.55, G 3.65, T 3.13, R 2.58, S 3.09, H 2.41, W 2.46, L 2.3, D 3.1
K22: Q 1.79, F 1.65, G 2.28, L 2.14, W 1.98, H 1.55
M8: D 3.29, A 2.27, L 1.66, N 2.38, F 1.59, V 1.43, I 1.33
V23: Q 2.09, Y 1.82, L 1.41, R 2.71, T 2.14, N 2.26
